Results from the DeepSol protein solubility set.

Assay: soluble on expression in E. coli; label from the status in PepcDB or PDB records
In the case of “MSEMTKTPTHYRLLSTLKAMGPYLREGQCSERFYLFDCLASCVNDKKSPEKREFWGWWMELTQNEQEMSACYHIGRYTLAGDWVAEAIPESAQAEVNHTQAEFHKKLVKTLRERFEISVTVSTESAPFA”, the “soluble on expression in E. coli” value is reported as “not soluble”.
For “LKPDPWADIETRFPVGSRHHARVRNFTNFGVFVEIEEGVDGLIHISDLSWTKKIKHPSEFTEVGADIEVQVIEIDKENRRLSLGHKQLEENPWDVFETVFTVGSIHEGTVIEVMDKGAVVSLPYGVEGFATPKHMVKEDGSQAVLEEKLPFKVIEFNKDAKRIIVSHSRVFEDEQKMAQREANAERKAEAKAAQKEAAAEAANPAQAVEKATLGDLGELAALKEKLSEN”, the “soluble on expression in E. coli” value was “not soluble”.
With “TMSSCVSSQPSSNRAAPQDELGGRGSSSSESQKPCEALRGLSSLSIHLGMESFIVVTECEPGCAVDLGLARDRPLEADGQEVPLDSSGSQARPHLSGRKLSLQERSQGGLAAGGSLDMNGRCICPSLPYSPVSSPQSSPRLPRRPTVESHHVSITGMQDCVQLNQYTLKDEIGKGSYGVVKLAYNENDNTYYAMKVLSKKKLIRQAGFPRRPPPRGTRPAPGGCIQPRGPIEQVYQEIAILKKLDHPNVVKLVEVLDDPNEDHLYMVFELVNQGPVMEVPTLKPLSEDQARFYFQDLIKGIEYLHYQKIIHRDIKPSNLLVGEDGHIKIADFGVSNEFKGSDALLSNTVGTPAFMAPESLSETRKIFSGKALDVWAMGVTLYCFVFGQCPFMDERIMCLHSKIKSQALEFPDQPDIAEDLKDLITRMLDKNPESRIVVPEIKLHPWVTRHGAEPLPSEDENCTLVEVTEEEVENSVKHIPSLATVILVKTMIRKRSFGNPFEGSRREERSLSAPGNLLTKKPTRECESLSELKGTKKKKGLDSMTSTVAAGWLDRRV” the “soluble on expression in E. coli” value was “soluble”.
For “MGSDKIHHHHHHMSIQTSDPNETSDLKSLSLIAAHSHITGLGLDENLQPRPTSEGMVGQLQARRAAGVILKMVQNGTIAGRAVLVAGPPSTGKTALAMGVSQSLGKDVPFTAIAGSEIFSLELSKTEALTQAFRKSIGIKIKEETELIEGEVVEIQIDRSITGGHKQGKLTIKTTDMETIYELGNKMIDGLTKEKVLAGDVISIDKASGKITKLGRSFARSRDYDAMGADTRFVQCPEGELQKRKTVVHTVSLHEIDVINSRTQGFLALFTGDTGEIRSEVRDQINTKVAEWKEEGKAEIVPGVLFIDEVHMLDIECFSFINRALEDEFAPIVMMATNRGVSKTRGTNYKSPHGLPLDLLDRSIIITTKSYNEQEIKTILSIRAQEEEVELSSDALDLLTKTGVETSLRYSSNLISVAQQIAMKRKNNTVEVEDVKRAYLLFLDSARSVKYVQENESQYIDDQGNVQISIAKSADPDAMDTTE”, the “soluble on expression in E. coli” value was “not soluble”.
For “MGSDKIHHHHHHMQSPIPVLSMRKLYLGASDRQQFIADLGRAARDVGFFYLEDHGISLAEQVKVLDTAKSFFALSDAEKKQVQMIHSPHFRGYSANYSELTAGRPDRREQFDIMDELPALSASAIHHEWQKLIGPNQWPRQLPAIKSQLLSWQDKLTEVSLQLLAALCESLEQPADALAETISNGPYRHTKLIKYPGSPEASGQGVGAHKDPGYLTLVLQDENSGLEVEYEQQWYKVAPRPGAFVVNIGELLELASNGYLKATNHRVSSPKTGVTRYSSAFFMAAQLNASVPVLKLPSHLAKHAKGPTSDPGNPLLHNVGENVMKGRKRSHPDVSARFYASEEKCSSC”, the “soluble on expression in E. coli” value was “not soluble”.
With “MWPPNAENNHCNYSYHEHAELNPHDHYHHHHYPHSSVHHTECYQTLSCPSDLPVETSYYNSVPPSYQDLGQTDLSPQFWCAEVDCVHERCSTKEIPHEQSKIFEEISKECDHIMNSAGDCEKCQVEHENGAQEAIPINDLVDIVMQTVDNLKKEGSSNDETKLLSRKRQQNKVAAARYRDKQKAKWQDLLDQLEAEEDRNQRLKLQAGHLEKEVAEMRQAFLAKLAKK” the “soluble on expression in E. coli” value was “not soluble”.
For “MSLTFDFFEGPAGSGKTFSMVAHARQLIESDALGEGQRMLALTFMNGARRRLTSNLNAEASFRRKFDCLTFDSFAQSLAKRRSAKLTDEMRQQAEELGQFHGPCFLACELLNDVEVRRWVARTYPLVLVDEAQDLDVHRQGIVLGLKECCTTVVAADSFQCLSDGQETADFIDRLLRAGTTHTLTQSHRTNKAGLLAAALAVRNGEDIRAVLNEEAIGKTNRVHWIGEGIELVEVPATARNSGLLAWNLAFQLRLGSDDVALLTPDSANTIIRNAIGTVASKQRPWPHNAFSVSWEGGDSSVADELAEAIGFPDTAPYDEVCALLEEHSAQPMVKTVIRRIRRLQRVTGQSEFEKAQLVSFISDAVRTNTRLGFKKSAKIKAMSIHGAKNREFDRVIVLWPQSATGSDEHKRRLLYNAMTRTKNHCTVIVLGTGRLNSAPFAEGHHHHHH”, the “soluble on expression in E. coli” value was “soluble”.
In the case of “MAQQETPQDKRRRHARVDNVIYANFGAKTTVRTEPEAPEIVESRNFSPVALRIRDLATQEADAGRLKRGRDYARSGHVLNVKFGNSLITADVAGSQNLPFQVSIAFPYLSTDGLSQITQYIAASPDGLNAARHGQLSEDILDLLLGTQVTFRCDCPDHVVCCKHSVAVVTVASEKVEADPLLAFRLRGLDLAQLEQAVTMQARAASTQDLKERFWQGRDLPSLPEPKIAPALDDSDASLLHKAMRLVSYTNIDELRAVSDIEDIYYHLTHEKG”, the “soluble on expression in E. coli” value is reported as “not soluble”.
In the case of “MKKAVVVFSGGQDSTTCLVQALKEFDEVHAITFDYGQRHKLEIEVAQQLAKQLGVTAHKVMDVSLLNELAISSLTRDDIPVSHELQANGLPNSFVPGRNILFLTLAGIYAYQIGATTVITGVCETDFSGYPDCRDEFVQAMNQALAKGMDLPLMIRTPLMWLNKAETWALADQLGALDLVRHQTLTCYNGLIGDGCGECPACGLRQAGLKAYLDNRDLIMSALKSKQSAAH”, the “soluble on expression in E. coli” value is reported as “not soluble”.
In the case of “MAVPPAYADLGKSAKDIFSKGYGFGTVKLDLKTKSQSGVEFTTGGSSNTDTGKAAGNLETKYKVKELGLSLNQKWNTDNVLTTEVTLEDQLAKGLKLGLDTSFVPNTGKKSAKLKTGYKREYMNVGCDLDFDLAGPTVHAAAVLGYEGWLAGYQMAFDTAKSKLAQNNFALGYKAGDFQLHTNVNDGTEFGGSIYQKVNGQLETAVNLAWTAGSNNTRFGIAAKYQLDKDSSVSAKVNNASLVGVGYTQSLRPGVKLTLSALIDAKNFNAGGHKVGMGFELEV”, the “soluble on expression in E. coli” value is reported as “not soluble”.
In the case of “MGSDKIHHHHHHMHEDKNDIFESIDTEDFDNKTEEECLELVRKNGLNLIYIKNQTEEICLEAVRQNCNAIKCVQNQTEKICIEAVKQDWRMLEFVEEPTEEICMLAINQDGTALKYIENQTEELCLRAVEKNGAALEYVKEQTEEICIEAVRNSEFGLARVKNQTEKICMEAVKHCSYNLKWVENQTEEICMEAVRQNGLDLKFVKNQTETICLRAVRQNGMALEFVKEQTVGICLKAVRQYGMALKFVKEQTEEICTEAIKQDKRALSFVKGDKEKYKALYDNNEPFAKRYVRNVIEKENRALIKKGEENAKIKIAGKLYDRGMSFEDISDIVEIEISKLKVSLGVF”, the “soluble on expression in E. coli” value is reported as “not soluble”.
For “MQDTTLLQMITDDMVSARQLLELLQAESLILHGRDMSEMEQVLAQKQALVILLDQHGRKRSQVLAGMGLPANRSGLQQLASQSEVGEQLLTSSDELNALINECQTLNDQNGSLIQLQQISTAHQLRILNGGETPTLYDARGSTALRAKPRPLSQA”, the “soluble on expression in E. coli” value was “not soluble”.
In the case of “MGSDKIHHHHHHMPFVRLDVRRPGHADRIVYVPVTTRTSYLLKSSEGGMVLRFDRGDVVAARVRPLNIGDVGALLSRRRRHKRFQLPLGRGAVLQPLLHISGPEGRELARALGSLAGWGFGTASDNLQKTLSRHFNGPQAEAPERLPTVEPKIAVALHLHYPDLWPEFEALLEATGRQFQLFLTLTRPDAALAQRVQARFPGAEITVYENRGRDVGPFIQLLREGKFDPFDLICKLHGKKSGQSGPRMVLGEIWRQVSAFDLIGSRGVVDRIIANFERSPDTQMIGSRRFRLPNEWKGEKSAWGENRAMALNLLETMGMPSSSRLDFFAGTMFWVRRGALEPLRRLDLPLAAFPEETGQQDGTLQHALERVLGMICTKIGVASDGDMTTDSREADPIG”, the “soluble on expression in E. coli” value is reported as “not soluble”.
In the case of “MTAPFKDHFSTGSANYAAHRPTYPAQLVDELAALCPGTRLALDCGCGTGQLTVLLAERFERVVGTDASAAQIDKAQARERVEYRVALAEDSGLAAASADLVTVAQAAHWLDLPRFYEEVRRVARADAILALVTYGVLHVDGPMEPLVQHFYHQVVGPYWPAERRHVEEGYRNLPFPFEERRLPDLAIEVAWTLDELLGYVGTWSAVKEAGKALGQDPGAAFVDELREAWGDPQTRYRVSWPLTVRAGVIR”, the “soluble on expression in E. coli” value is reported as “not soluble”.
In the case of “AIAVSRLEHPAGGYKKVFESCEELAEPIPAHVSGKIPAWLSGSLLRMGPGLFEIGDEPFNHLFDGQALIHKFDLKDGRVTYHRKFIRTDAYVRAMTEKRVVITELGTAAYPDPCKNIFSRFFTYFQGTEVTDNCSVNIYPIGEDFYACTETNFITKVNPDTLETIKKVDLCNYLSVNGLTAHPHIEADGTVYNIGNCFGKNMSLAYNIVKIPPLQEEKSDPLAMSKVLVQFPSSERFKPSYVHSFGMTENHFVFVETPVKINLLKFLTSWSIRGSNYMDCFESNDRMGTWFHLAAKNPGKYINNPSQ”, the “soluble on expression in E. coli” value is reported as “soluble”.
With “MINIDPPSGDCPASGGSSTHNIVSESESRLAFKVKSSNNESYRVRPVYGFVDAKGKAKLDVNRLAGPPKEDKLVIQYARVPADETDPKAPFAAGAQQGEVVVKMVAT” the “soluble on expression in E. coli” value was “not soluble”.
For “MGVCRICGLSLDEISDSIGVCLECLRKGNLDFARKAHRKWREEIGLPVERWAREEGKVCFLCVNSCVIPEGKTGFCGVLRNEGGRLSYITGSHRKAFLHWYYDPHPTNCVALPICPEREHRGFYNFAVFFAGCNLDCLFCQNIDHKYMVKDGRISEGKIVDIDELVEIAMKPRVSCVCFFGGDPTPWTVFALEFAVKLGNRRRICWETNGLAHPRIMERMARVSLESGGIVKIDWKAFSPEVYEALTGVDGKSAVRRIMENVQLVSSMGKGREIPLLVISVLVIPHYIDEKEIEGIAGFISSVDPEIPLVLLAFAPQHLMSDLPTTRKHHMERVKQKALEKGLKRVFVENVWLLS”, the “soluble on expression in E. coli” value was “not soluble”.
In the case of “MGSDKIHHHHHHMSKSVDETVFDFFELLLHEDDSAFSASPIKSQASATSAFDVSIKTEAQQLNDAILAEHERSKVDARASIVPEAQLARAKSIVTVSTKENAEPLVNKQALERLLAPVLKTQAPDIPKPTELNEQPLPLPKPVEAIAVTNVVKPADVESQQVEIISTAPETQVGFAPPSVTKDLQEVLDDEFQVLFFKVAGLTLAVPLVSLGGIVKVERINHIIGRPSWFLGVQTHREEQLNLVDTCAWVMPEKYTDKLAQSVNYQYLVLLEGSNWGLACESLLNAVKIHKSQVNWRSKAGKRPWLAGVVKEQMCGILHVQALVQMLDAGLGCQDSIG”, the “soluble on expression in E. coli” value is reported as “not soluble”.
For “MVKQIESKTAFQEALDAAGDKLVVVDFSATWCGPCKMIKPFFHSLSEKYSNVIFLEVDVDDAQDVAPKYGIRGIPTLLLFKNGEVAATKVGALSKGQLKEFLDANLV”, the “soluble on expression in E. coli” value was “soluble”.
With “MGVVNVPSNGREKFKKNWKFCVGTGRLGLALQKEYLDHLKLVQEKIGFRYIRGHGLLSDDVGIYREVEIDGEMKPFYNFTYIDRIVDSYLALNIRPFIEFGFMPKALASGDQTVFYWKGNVTPPKDYNKWRDLIVAVVSHFIERYGIEEVRTWLFEVWNEPNLVNFWKDANKQEYFKLYEVTARAVKSVDPHLQVGGPAICGGSDEWITDFLHFCAERRVPVDFVSRHAYTSKAPHKKTFEYYYQELEPPEDMLEQFKTVRALIRQSPFPHLPLHITEYNTSYSPINPVHDTALNAAYIARILSEGGDYVDSFSYWTFSDVFEEMDVPKALFHGGFGLVALHSIPKPTFHAFTFFNALGDELLYRDGEMIVTRRKDGSIAAVLWNLVMEKGEGLTKEVQLVIPVSESAVFIKRQIVNEQYGNAWRVWKQMGRPRFPSRQAVETLRQVAQPHVMTEQRRATDGVIHLSIVLSKNEVTLIEIEQVRDETSTYVGLDDGEITSYSS” the “soluble on expression in E. coli” value was “soluble”.
